Usually kcat stands for the number of substrate molecules converted per active site and unit of time at saturation. What is called kcat/Km is the second-order rate constant that governs catalysis at low substrate concentration.

This data set has as its system c1ccc(-c2ccccc2)cc1. Kind of data set: purified protein. The note with it: apparent, air-saturated 50 mM MES pH 6.0, NADH 123 µM, BphG B356 and BphF LB400 as electron transfer partners, Fe(II) added, well coupled.

Text: O2 consumption, Clark-type oxygen electrode on BPDOB356 (biphenyl dioxygenase, oxygenase component BphAE)

For “BPDOB356 (biphenyl dioxygenase, oxygenase component BphAE) (Comamonas testosteroni; M231T)”, the Km was 11.1 (3.1) µM, the catalytic constant (kcat) came to 2.9 s⁻¹ and the kcat/Km was determined as 300000 M⁻¹ s⁻¹.

With “BPDOB356 (biphenyl dioxygenase, oxygenase component BphAE) (Comamonas testosteroni; M231A)”, the Km was 9.4 (1.9) µM, the catalytic constant (kcat) was 2.1 s⁻¹ and the kcat/Km was found to be 200000 M⁻¹ s⁻¹.

Values taken from paper PMC3536784, “Structural Characterization of Pandoraea pnomenusa B-356 Biphenyl Dioxygenase Reveals Features of Potent Polychlorinated Biphenyl-Degrading Enzymes” (PLoS ONE, 2013).
